Source: US20170260530, “APTAMERS FOR PURIFYING AND QUANTIFYING GELSOLIN AND ITS VARIANTS” (Council of Scientific & Industrial Research, published 2017)

B1: 10.10R (ssDNA)
DNA: TCAAGTGGTCATGTACTAGTCAAGCACTTTCGCTGCTCGCTGGCGCCGCGCCCATCATATGTCCTTCTCTTCCCTA
B2: L16F (ssDNA)
DNA: TAGGGAAGAGAAGGACATATGATAGGGGGATAGGAGGGGGTGGGATTGGGGGATTGACTAGTACATGACCACTTGA
B3: L24F (ssDNA)
DNA: TAGGGAAGAGAAGGACATATGATCGGGGGGCGGGTATTGGGGGCCGGGGGGATTGACTAGTACATGACCACTTGA
B4: L26F (ssDNA)
DNA: TAGGGAAGAGAAGGACATATGATGGGGCACTGGAGGGTGGGGGAGCGGGGGCGGTTGACTAGTACATGACCACTTGA

What was measured:
Gelsolin (GSN) [1] = target: T1, Gelsolin (GSN) (Homo sapiens, UniProt P06396 SEQ:28-782); experiment: microtiter (ELISA-type) assay, immobilized aptamer 1.56-100 nM, 100 nM gelsolin; 25 mM Tris pH 8, 150 mM NaCl, 2 mM CaCl2, 5 mM MgCl2, 10 mM KCl; RT; details: tags: tagless; expressed from pET303/CT-His vector in E. coli BL21(DE3); label: biotin
T1 sequence (P06396 28-782): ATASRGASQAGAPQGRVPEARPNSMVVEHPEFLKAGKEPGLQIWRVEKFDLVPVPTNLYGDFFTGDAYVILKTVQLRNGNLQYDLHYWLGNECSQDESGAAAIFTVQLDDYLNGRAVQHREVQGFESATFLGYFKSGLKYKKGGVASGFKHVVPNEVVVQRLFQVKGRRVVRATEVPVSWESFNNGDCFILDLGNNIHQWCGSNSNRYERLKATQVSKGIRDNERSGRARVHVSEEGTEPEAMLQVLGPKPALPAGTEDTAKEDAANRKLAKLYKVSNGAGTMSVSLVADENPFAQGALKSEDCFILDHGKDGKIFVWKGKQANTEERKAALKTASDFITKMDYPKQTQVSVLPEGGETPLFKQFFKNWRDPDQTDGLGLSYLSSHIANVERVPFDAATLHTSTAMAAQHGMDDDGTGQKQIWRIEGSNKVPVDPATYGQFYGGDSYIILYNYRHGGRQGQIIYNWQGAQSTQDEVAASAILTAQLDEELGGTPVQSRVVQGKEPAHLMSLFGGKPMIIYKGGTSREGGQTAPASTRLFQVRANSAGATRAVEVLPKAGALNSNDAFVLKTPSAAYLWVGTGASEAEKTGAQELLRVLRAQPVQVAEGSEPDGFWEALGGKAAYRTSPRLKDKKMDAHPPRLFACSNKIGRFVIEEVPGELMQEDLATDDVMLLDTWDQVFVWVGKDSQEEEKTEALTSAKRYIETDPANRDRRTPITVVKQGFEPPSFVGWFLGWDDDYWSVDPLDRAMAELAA

Gelsolin (GSN) [2] = target: T1, Gelsolin (GSN); experiment: microtiter (ELISA-type) assay, immobilized aptamer, 100 nM gelsolin; selection buffer with 2 mM CaCl2, 5 mM MgCl2; RT; details: tags: tagless; expressed from pET303/CT-His vector in E. coli BL21(DE3); label: biotin

Row | Binder | Kd (Gelsolin (GSN) [1]) [nM] | Kd (Gelsolin (GSN) [2]) [nM]
1 | B1 | 7.2 | –
2 | B2 | – | 12.7
3 | B3 | – | 15.7
4 | B4 | – | 15.3
